One block for each binder: values may come before it.
Key:
[1] = biological target: T1, CD40/FC (CD40 ECD/FC chimera-His tag) (UniProt P25942 21-193, limits assumed); experiment: Direct Bind ELISA, antigen on plate; C-terminal VD
T1 construct: extracellular domain; Bought reagent
Protocol: (§1) Enzyme Linked Immunosorbent Assays to screen for antibodies that bind a desired target antigen were performed as follows. […] Plates were washed four times with PBS containing 0.02% Tween 20. Plates were blocked by the addition of 300 μL/well blocking solution (non-fat dry milk powder, various retail suppliers, diluted to 2% in PBS) for ½ hour at room temperature. Plates were washed four times after blocking with PBS containing 0.02% Tween 20.
(§2) Alternatively, one hundred microliters per well of 10 μg/ml of Histidine (His) tagged desired target antigen (R&D Systems, Minneapolis, Minn.) was added to ELISA plates coated with monoclonal mouse anti-polyHistidine antibody as described above and incubated for 1 hour at room temperature. Wells were washed four times with PBS containing 0.02% Tween 20.
(§3) One hundred microliters of antibody or DVD-Ig preparations diluted in blocking solution as described above was added to the desired target antigen plate or desired target antigen/FC fusion plate or the anti-polyHistidine antibody/His tagged desired target antigen plate prepared as described above and incubated for 1 hour at room temperature. Wells are washed four times with PBS containing 0.02% Tween 20.

[2] = biological target: T1, CD40/FC (CD40 ECD/FC chimera-His tag); experiment: Direct Bind ELISA, antigen on plate; N-terminal VD
Protocol: as §1, §2, §3

[3] = biological target: T1, CD40/FC (CD40 ECD/FC chimera-His tag); experiment: Direct Bind ELISA, antigen on plate

T1 sequence (P25942 21-193 limits assumed, change not shown): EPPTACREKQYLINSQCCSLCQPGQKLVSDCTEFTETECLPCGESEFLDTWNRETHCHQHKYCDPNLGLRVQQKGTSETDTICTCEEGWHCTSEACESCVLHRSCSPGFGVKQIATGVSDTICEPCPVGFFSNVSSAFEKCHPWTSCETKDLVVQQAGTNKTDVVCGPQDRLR

EC50 [1]: 3.55 nM
B1: DVD009 (CD-20 and CD-40 DVD-Ig) (bispecific antibody, IgG1)
VH: QVQLQQPGAELVKPGASVKMSCKASGYTFTSYNMHWVKQTPGRGLEWIGAIYPGNGDTSYNQKFKGKATLTADKSSSTAYMQLSSLTSEDSAVYYCARSTYYGGDWYFNVWGAGTTVTVSAASTKGPQVQLVESGGGVVQPGRSLRLSCAASGFTFSSYGMHWVRQAPGKGLEWVAVISYEESNRYHADSVKGRFTISRDNSKITLYLQMNSLRTEDTAVYYCARDGGIAAPGPDYWGQGTLVTVSS
VL: QIVLSQSPAILSPSPGEKVTMTCRASSSVSYIHWFQQKPGSSPKPWIYATSNLASGVPVRFSGSGSGTSYSLTISRVEAEDAATYYCQQWTSNPPTFGGGTKLEIKRTVAAPDIVMTQSPLSLTVTPGEPASISCRSSQSLLYSNGYNYLDWYLQKPGQSPQVLISLGSNRASGVPDRFSGSGSGTDFTLKISRVEAEDVGVYYCMQARQTPFTFGPGTKVDIRR
notes: Outer AB001, inner AB009; HC vector V1 (wild-type hIgG1 constant), LC vector V2 (kappa constant); also called DVD009H; DVD009L

EC50 [2]: 0.82 nM
B2: DVD010 (CD-40 and CD-20 DVD-Ig) (bispecific antibody, IgG1)
VH: QVQLVESGGGVVQPGRSLRLSCAASGFTFSSYGMHWVRQAPGKGLEWVAVISYEESNRYHADSVKGRFTISRDNSKITLYLQMNSLRTEDTAVYYCARDGGIAAPGPDYWGQGTLVTVSSASTKGPQVQLQQPGAELVKPGASVKMSCKASGYTFTSYNMHWVKQTPGRGLEWIGAIYPGNGDTSYNQKFKGKATLTADKSSSTAYMQLSSLTSEDSAVYYCARSTYYGGDWYFNVWGAGTTVTVSA
VL: DIVMTQSPLSLTVTPGEPASISCRSSQSLLYSNGYNYLDWYLQKPGQSPQVLISLGSNRASGVPDRFSGSGSGTDFTLKISRVEAEDVGVYYCMQARQTPFTFGPGTKVDIRRTVAAPQIVLSQSPAILSPSPGEKVTMTCRASSSVSYIHWFQQKPGSSPKPWIYATSNLASGVPVRFSGSGSGTSYSLTISRVEAEDAATYYCQQWTSNPPTFGGGTKLEIKR
notes: Outer AB009, inner AB001; HC vector V1 (wild-type hIgG1 constant), LC vector V2 (kappa constant); also called DVD010H; DVD010L

EC50 [3]: 0.99 nM
B3: AB009 (anti-CD-40 parent antibody) (antibody, IgG1, V domains shown)
VH: QVQLVESGGGVVQPGRSLRLSCAASGFTFSSYGMHWVRQAPGKGLEWVAVISYEESNRYHADSVKGRFTISRDNSKITLYLQMNSLRTEDTAVYYCARDGGIAAPGPDYWGQGTLVTVSS
VL: DIVMTQSPLSLTVTPGEPASISCRSSQSLLYSNGYNYLDWYLQKPGQSPQVLISLGSNRASGVPDRFSGSGSGTDFTLKISRVEAEDVGVYYCMQARQTPFTFGPGTKVDIRR
notes: HC vector V1 (wild-type hIgG1 constant), LC vector V2 (kappa constant); also called AB009VH; AB009VL

— US20100260668A1 (published 2010)
